The values below are quoted from earlier work in PMC8393326, “A Thermodynamic Analysis of the Binding Specificity between Four Human PDZ Domains and Eight Host, Viral and Designed Ligands” (Biomolecules, 2021).

Data set [1] concerns the target phosphorylated ERBB2 peptide (Homo sapiens).
The target in data set [2] is ERBB2 peptide (Homo sapiens).

Sequence of Erbin PDZ (Q96RT1 1318-1412): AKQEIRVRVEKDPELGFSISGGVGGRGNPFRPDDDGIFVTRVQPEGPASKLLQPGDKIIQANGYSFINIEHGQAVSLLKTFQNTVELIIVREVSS

Turning to Erbin PDZ (from UniProt Q96RT1), the results for the Kd in data set [1] and in data set [2] were 128 µM and 50 µM, respectively.
